Assay results taken from patent US20230087785A1, “Leucine-Rich Repeat Kinase 2 Allosteric Modulators” (VIB VZW, priority 2020, published 2023).

T1: LRRK2 RocCOR domain construct (human, UniProt Q5S007 1334-1840)
T1 construct: A second construct (residues 1293-1840, N-terminal His6-MBP) was used in certain screening experiments; not shown: N-terminal Twin-Strep-tag; C-terminal His10-tag
T1 sequence: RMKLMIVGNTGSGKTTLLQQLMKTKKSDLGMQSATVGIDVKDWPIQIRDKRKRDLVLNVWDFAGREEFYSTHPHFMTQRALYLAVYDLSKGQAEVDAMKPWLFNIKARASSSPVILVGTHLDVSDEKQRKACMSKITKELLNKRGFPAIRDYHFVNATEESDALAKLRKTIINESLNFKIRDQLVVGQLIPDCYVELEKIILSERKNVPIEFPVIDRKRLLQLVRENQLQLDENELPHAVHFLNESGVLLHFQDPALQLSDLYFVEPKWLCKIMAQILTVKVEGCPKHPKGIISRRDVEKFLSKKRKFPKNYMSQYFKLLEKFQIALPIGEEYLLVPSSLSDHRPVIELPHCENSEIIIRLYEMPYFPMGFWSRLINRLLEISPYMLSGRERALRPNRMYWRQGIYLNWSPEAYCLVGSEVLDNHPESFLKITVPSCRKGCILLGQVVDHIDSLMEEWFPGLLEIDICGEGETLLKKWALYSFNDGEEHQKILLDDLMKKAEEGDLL

T2: LRRK2 kinase-WD40 domain construct (human, UniProt Q5S007 1876-2527)
T2 construct: also called K-WD40; not shown: N-terminal His-tag (pFastBac)
T2 sequence: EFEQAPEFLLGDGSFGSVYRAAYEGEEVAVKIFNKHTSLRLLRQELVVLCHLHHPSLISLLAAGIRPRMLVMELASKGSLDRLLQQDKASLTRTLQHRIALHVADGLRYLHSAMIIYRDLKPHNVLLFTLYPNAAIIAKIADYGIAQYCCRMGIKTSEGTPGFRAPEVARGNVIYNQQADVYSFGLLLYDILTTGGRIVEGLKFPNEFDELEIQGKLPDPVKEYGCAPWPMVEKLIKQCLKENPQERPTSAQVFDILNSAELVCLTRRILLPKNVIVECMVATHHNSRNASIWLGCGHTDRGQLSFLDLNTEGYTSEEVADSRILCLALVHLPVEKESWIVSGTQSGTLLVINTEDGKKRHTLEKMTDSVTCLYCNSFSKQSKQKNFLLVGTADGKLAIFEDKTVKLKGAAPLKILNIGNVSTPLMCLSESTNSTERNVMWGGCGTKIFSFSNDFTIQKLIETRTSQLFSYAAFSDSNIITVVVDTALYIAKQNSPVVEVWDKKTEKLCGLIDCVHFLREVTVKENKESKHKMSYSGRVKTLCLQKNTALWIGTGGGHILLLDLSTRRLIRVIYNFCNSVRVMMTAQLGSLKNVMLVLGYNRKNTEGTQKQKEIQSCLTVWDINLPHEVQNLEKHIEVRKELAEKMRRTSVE

T3: LRRK2 Roc domain construct (human, UniProt Q5S007 1329-1520)
T3 construct: not shown: N-terminal His6-tag of pET-28a
T3 sequence: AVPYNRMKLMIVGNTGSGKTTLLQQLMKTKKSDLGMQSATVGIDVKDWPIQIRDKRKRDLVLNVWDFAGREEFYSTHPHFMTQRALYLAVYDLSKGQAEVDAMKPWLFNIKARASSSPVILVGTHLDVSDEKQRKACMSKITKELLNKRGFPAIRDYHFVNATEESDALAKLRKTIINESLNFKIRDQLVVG


Legend:
[1] = molecular target: T1, LRRK2 RocCOR domain construct; assay: ELISA, antigen coated on the plate, purified Nb detected via its EPEA tag
Excerpt: (§1) We recombinantly expressed and purified the RocCOR, Roc, COR-B and kinase-WD40 (K-WD40) domain constructs of LRRK2 (FIG. 7). Subsequently, we performed an ELISA in which all these domain constructs were coated in parallel next to each other in the same ELISA plate, and where we subsequently detected binding of the 42 purified Nbs. […] To enrich in Nbs directed against the Roc domain we specifically included a selection step with either Roc-GTPγS or Roc-GDP.

[2] = molecular target: T4, LRRK2 COR-B construct (C-terminal part of the COR domain), His6-MBP tagged (human, UniProt Q5S007 1672-1840); assay: as above
T4 construct: also called (MBP-)COR-B; not shown: N-terminal His6-MBP-tag of pDEST-566
Excerpt: as §1

[3] = molecular target: T2, LRRK2 kinase-WD40 domain construct; assay: as above
Excerpt: as §1

[4] = molecular target: T5, Full-length human Leucine-rich repeat kinase 2 (LRRK2), N-terminal Strep/Flag (SF) tagged (human, UniProt Q5S007 1-2527); assay: BLI; Nb on LRRK2 trapped on streptavidin sensor via biotinylated Nb40; steady-state fit
T5 construct: Purified from HEK293T cells in presence of GDP or GTPγS; also called FL LRRK2; FL-LRRK2
Protocol: (§2) To determine the binding affinity (dissociation constant KD) of the ten Nbs for LRRK2, two methods were used in parallel: microscale thermophoresis (MST) and bio-layer interferometry (BLI). For the MST experiment, we site-specifically labeled the ten Nbs with a m-TAM RA fluorophore at its C-terminus, using sortase-mediated coupling, and then titrated increasing amounts of full-length LRRK2 to these Nbs (FIGS. 13A-13E).
(§3) Biolayer interferometry (BLI) measurements were performed using an Octet Red96 (Forte Bio, Inc.) system in a buffer containing 50 mM HEPES pH 8.0, 150 mM NaCl, 10 mM MgCl₂, 5% glycerol, 0.1% BSA, 0.05% Tween, at 25° C. and with shaking speed 1000 rpm. […] The biotinylated Nbs were first loaded on pre-equilibrated SA biosensors at a concentration of 5 μg/mL. This Nb-loaded sensor was then used to trap FL-LRRK2 from a 50 nM LRRK2 solution. […] All experiments were performed in triplicate.

[5] = molecular target: T5, Full-length human Leucine-rich repeat …; assay: MST; LRRK2 titrated to m-TAMRA-labelled Nb, in presence of GTPγS instead of GDP; MST in presence of GTPγS instead of GDP
Protocol: (§4) Microscale thermophoresis (MST) experiments were performed for determining equilibrium binding affinities (KD) of Nbs binding to FL-LRRK2. Therefore, Nb were site-specifically labelled at their C-terminus with m-TAMRA, using Sortase-mediated peptide exchange. The Nbs were recloned into a pHEN29 vector which is subsequently used to express and purify the Nbs with a C-terminal LPETGG-His₆-EPEA tag. Exchange of the latter peptide with an m-TAMRA-labeled GGGYK peptide (GenicBio, Shanghai, China) was performed using Sortase, and unlabeled Nb and unincorporated peptide were removed using a Ni-NTA and SEC purification step, respectively. […] After incubation at 4° C. for 30 mins, samples were loaded in capillaries and measurements were performed at 25° C. using 50-70% LED power and 80% laser intensity (laser on-time: 30 s, laser off-time: 5 s). All experiments were performed in triplicate.

[6] = molecular target: T5, Full-length human Leucine-rich repeat …; assay: cell-based or functional assay
[7] = molecular target: T5, Full-length human Leucine-rich repeat …; assay: MST; LRRK2 titrated to m-TAMRA-labelled Nb, 500 µM GDP
Protocol: as §4

[8] = molecular target: T3, LRRK2 Roc domain construct; assay: ELISA, antigen coated on the plate, purified Nb detected via its EPEA tag
Excerpt: as §1

[9] = molecular target: T5, Full-length human Leucine-rich repeat …; assay: ELISA titration on coated LRRK2, Nb detected via its C-terminal EPEA tag, A405 read at 10 h
Protocol: (§5) LRRK2 was coated in the wells of the ELISA plate and the ELISA signal for a dilution series of the respective Nbs (detected via their C-terminal EPEA-tag) is plotted in function of the Nb concentration. […] A “no antigen control”, where no LRRK2 was coated on the bottom of the well, is also included.
(§6) Detection of Nb binding was performed using the C-terminal EPEA tag of the Nbs as described before, resulting in a dose response titration curve reflecting an apparent affinity of the Nbs. […] A “no antigen control”, where no LRRK2 was coated on the bottom of the well, was also included.

[10] = molecular target: T5, Full-length human Leucine-rich repeat …; assay: kinase kinetics (PhosphoSens, varied ATP), global fit to mixed inhibition; ATP-bound LRRK2; enzyme kinetics, mixed inhibition fit; ATP-bound LRRK2
Protocol: (§7) Full Michaelis-Menten curves (relative velocity versus [ATP]) in presence of different Nb concentrations were collected at 30° C. in a buffer consisting of 50 mM HEPES pH 7.5, 0.1% Brij-35, 50 mM NaCl, 10 mM MgCl₂ and […], using a fixed concentration of AQT0615 (10 μM) and varying concentrations of ATP. The LRRK2 concentration was chosen such that initial rates (linear fluorescence versus time curves) were obtained, and LRRK2, ATP and the Nbs were preincubated at 4° C. for 30 min prior to starting the reaction by adding the peptide substrate. The Michaelis-Menten curves for the different Nb concentrations were globally fit on a mixed-inhibition model using GraphPad Prism, according to the equation: […]

[11] = molecular target: T5, Full-length human Leucine-rich repeat …; assay: kinase kinetics (PhosphoSens, varied ATP), global fit to mixed inhibition; affinity for apo-LRRK2; enzyme kinetics, mixed inhibition fit; apo-LRRK2
Protocol: as §7

[12] = molecular target: T5, Full-length human Leucine-rich repeat …; assay: ELISA titration on coated LRRK2, Nb detected via its C-terminal EPEA tag, A405 read at 0.5 h
Protocol: as §5, §6

[13] = molecular target: T5, Full-length human Leucine-rich repeat …; assay: BLI; Nb on LRRK2 trapped on streptavidin sensor via biotinylated Nb42; steady-state fit
Protocol: as §2, §3

Row | Binder | binding result [1] | binding result [2] | binding result [3] | Kd [4] [nM] | Kd [5] [nM] | IC50 of in vitro LRRK2 kinase activity (AQT0615 peptide, PhosphoSens, 1 mM ATP) [6] [µM] | Kd [7] [nM] | binding result [8] | EC50 (read off the curve) [9] [nM] | Ki [10] [µM] | Ki [11] [µM] | EC50 (read off the curve) [12] [nM] | Kd [13] [nM]
1 | Nb42 (CA14259) (VHH, biotinylated form used as trapping agent in BLI of Nb40) VHH: QVQLVESGGGLVQAGGSLRLSCAASGDVNYAVGWFRQAPRKEREFVAAINWRGDNTDYTDSVKGRFTISRDNAKNTVYLQMNSLKPEDTAVYYCAAKSAPYWYSDIAPDYWGQGTQVTVSS | no binding (tested: not given) | no binding (tested: not given) | no binding (tested: not given) | 82 | 94 |  |  |  |  |  |  |  | 
2 | Nb1 (CA12610) (VHH) VHH: QVQLVESGGGLVQAGGSLRLSCVASGRIFSGNAMGWYRQAPGRQRELVAGITNGGYTNYRQFVKGRFTISRDNAKRTVYLQMNSLKPEDTAVYYCNALDREARQVDYWGQGTQVTVSS |  |  | no binding (tested: not given) | 114 |  | 8 | 91 | no binding (tested: not given) | ~10 | 30 | 16 |  | 
3 | Nb6 (CA12618) (VHH) VHH: QVQLVESGGGLVQAGGSLRLSCAASGSIFSPTAMGWYRQAPGKERELVAGITSGGYTNYRNFARGRFTISRDNAKKTVYLQMNSLNPEDTAVYYCNTLTISWSWGQGTQVTVSS |  |  | no binding (tested: not given) | 7 |  | 14 | 83 | no binding (tested: not given) |  | 8 | 5 | ~5 | 
4 | Nb40 (CA14135) (VHH, biotinylated form used as trapping agent in BLI) VHH: QVQLVESGGGLVQPGGSLRLSCVASGTIYAINRMGWYRQAPGKQRELVALITLGGGTNYGDSVKGRFTISRDNAKNTGYLQMNSLKPEDTAVYYCKVESSGYTDVFWGQGTQVTVSS | no binding (tested: not given) | no binding (tested: not given) |  |  |  |  | 26 | no binding (tested: not given) |  |  |  |  | 41
